Measurements published in the domain aggregation screens of Martell et al. (2025).

assay: soluble fraction after stress (log2 fold change); higher = more stays soluble; pooled small domains, quantitative proteomics; conditions: stress: pH 4
Summary of the method: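 Small protein domains from pooled custom libraries were exposed to pH 4, then quantified with high-throughput quantitative proteomics. The fold change in how much of each domain remains soluble is read as aggregation propensity. It is given as log2, with higher values meaning more stayed soluble.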

Row | Sequence | soluble fraction (log2)
1 | HMVTDTGEIEAIIDRVISENPDSVSDFKNGKERALKFLMGQAMKESKGKANPQIVNELLLKKL | 0.0343
2 | HMVTDVDELEKLIQKVLDSNSSQVDEYRQGKEKVFGFFVGAVMKLTKGQADPDVVNQLLKEKLSGRK | -0.0516
3 | HMVTDVDYSTFLSQVEEGKVESVTIEDGEILFKGKDENGEARWYITGEMNDPNLVERLKDKVPSFNAPA | -0.128
4 | HMVTIYQRIMLVLEDKQVSVNALSKLVDMSQTTLNTQLKGERTLSANVVAKVLVAYPDVSAEWLMRGVGTM | -0.426
5 | HMVTLYDGFLSELRKRIPRGAELTNTLVDMLYIEREAVYRRLRGEVPFTFIEVMTVSKELGISLDNLAQA | -0.802
6 | HMVTTADIILEFYSRNPNATLTQAAQHVARATGTTYSRQAISAQLKRLEVAGLVERNGHVTV | -0.47
7 | HMVTTLLIINVAGKVKNPGVYQLPPGSRVVDALEAAGQQLKGVDISDINLARVLVDGEQILIGSN | -1.35
8 | HMVTVQEGETLSAIAARSGVSVKDLVRANEIRNPDSIQEGQVLFVP | 0.165
9 | HMVVADFQNYTVKPKENLYSLTKTSGLSQEELVALNPELKNGVQEGMVIKLPAAVKLMAQPE | 0.22
10 | HMVVLPGEVLRINVIQEGKEHGQGVGYMDDGTMVVIENGREFIGEYMEVNVTKVLQTAAGRMIFGRVD | -0.917
11 | HMVVLPPTEDAPEWAQVFDRLGRPESADGYKLPVPEGADPAFAKLASAKMHELGLSAKQGAALAAWWNEQA | -0.332
12 | HMVVMEIGANGSEVVKLQKRLNQLGYYTEHASGVYDVKTASAVNEFQRQNELNATGKADYTTLDMIYNQ | -0.204
13 | HMVVRRLPFGFSKRFGVLVVPGTSNPVELLYREDASMQSLLEARRVVAQPVAFKKTDVESFNAQLARAHEN | -0.122
14 | HMVVSDSAEIDKIVQDVIAANPKAIEDFKSGKTNVTGWLMGQVMKLSHGKANPKQATEILNKYLSK | 0.18
15 | HMVVTRVKAIDVVNIRKSDSETADKLGKAAVGDEFDLLEKKGNGWSKISYEGGEAYIKSEFLEPSE | 0.034
16 | HMVVVMEKNASSAEIEQVQERLRQAGFKIHLSQGVERTIIGAIGDRSQVDLGFLEALPGVEKVVPIMK | 0.248
17 | HMVVYFGGPVMLERGIVLHTPDISTKGTINVSDDFALTAHKEILDNINKDTSSLQFKLAIGH | -0.337
18 | HMVWINIRDLSDLFSKSGKSENSKNILDLQTLKIEKLLGGGQINTPYTIKVKQATPSAIEKVKQAGGEVIL | -0.00604
19 | HMVWPETEAIVTEDFIGKKRSEVQQEGVIFEFFGEGDMVIDQLPRGGVTLNESGRVWIYLGEDTF | -1.4

Row | Sequence | soluble fraction (log2)
20 | HMVYFAKNIRHLRRLRGMSQELLAAELDITRARLGAYEESRSEPPLHLLIKISEFFKLPVDIIVKNDLTKS | -0.961
21 | HMVYFDDEELDRFAGRAADSYTSDETDEFRDVMLTLLPADVMPWTQSIEMRGILLPEQLRDELLML | -1.26
22 | HMVYVPTKAEVSQQFQDASKARFDERYAIVELADGRRTMAPLAFLTKADHAWLKQLASTSPLPKGK | 0.0133
23 | HMWAQSVSLHGLLGRQALLIVDGKPPRAVAPGQTHLGVTVLSTDEDRAVVALAGGQRLTLRVGESPVSVG | 0.264
24 | HMWMEKEELLWNDIIRGGVERGELREDTDIQEAAALFRQVFIGLAYQMSFSDGLDVGILRKRFHHIYGLLT | -2.16
25 | HMWNKGETKIPTQAQNELIKRRQAGATWTSLSEWLKATYGIDIHRTNIQRWYDKEVYLDQEN | -0.556
26 | HMWNPVLVVRGDFPKDLATTLLKMIFAQKEALNPHILFQNLLRTDNITFRESYPYHSASKTMFRF | -0.421
27 | HMWPQIAGFADRFGLSDTERRIVTLMSHGRSRKIIASTLGYSQNTIRNYTRNIYAKAGVHSKQELLDLLDP | -0.117
28 | HMWPTPRTWSALMNELNLYKENHGYANIVDIPSEKIRRMADGIIGEDMAVRYVAFLQSHASS | -0.614
29 | HMWQKGEPAITGLKRISKPGLRIYSKNDELPIVYGNRGIAVISTNKGVMTGIEAKRSGVGGEVLFYV | 0.104
30 | HMWSAREQVVNSLREAILTSELKAGERLVLSDLSARLGVSVTPIREALQSLEREGLVQLMPHQEAVVV | -0.409
31 | HMWVETITTKAGITKYKFQERYTDTYSGKTKRVSVTYTSNSRQAYKLAQAELQKKIDLATNTD | 0.112
32 | HMYAHLGKNLEVVINKALAQEDPEKKAGFAHHIAYYMKLAYSNWHKELVHDDAIRSELDTITGGELEFSN | -0.0696
33 | HMYAHTPEMEAMNELGLEPPVTLDEIKKTYKTLVKKYHPDHNKEDPEAEEKLKKVNMAYTILKVAYTEFEK | 0.0101
34 | HMYALGIPVSQYRRTTQVLGHESSYPIAYEDEKQDDDFYLFKFPNIDEYDFKKIVILLKQNGITT | -0.338
35 | HMYDNTVTKYVNSLSVYVRKGPSTSDEIVTSLIKDTDVTVVGENGEWYKIKYKEFEGYIYKNLLSDNKT | -0.125
36 | HMYDRIKLLKLREKRGLTQYELAEKAGISVVTLNKIETSDMAKPFASTLKKIALALGVGIEELS | 0.22
37 | HMYEDGGAFLKAEREKYGLTLTDIYEHTHIPVRKLKAYEMHEEEMPDRTRALLELYFDQVAYEYES | -0.339
38 | HMYEDIDSAYRILEINSTVSNQEIKNAYRRMAKKYHPDKVAHLGVEHQKGAEEKFKKVQEAYILIKKRRG | -0.146
